Experimental findings from doi:10.1101/464131 are described below.

This experiment deals with BS69 CC-MYND domain (amino acids 480-602) (human) (UniProt Q15326). In words: ITC. (In general: Isothermal titration calorimetry measures the heat released or taken up as one component is titrated into another.)
Chain of BS69 CC-MYND domain (amino acids 480-602) (human) (Q15326 480-602): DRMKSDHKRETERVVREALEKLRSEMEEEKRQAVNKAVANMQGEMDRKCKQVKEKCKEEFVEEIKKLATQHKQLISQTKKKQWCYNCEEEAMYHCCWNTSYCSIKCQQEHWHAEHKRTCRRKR

Chain of type 1 EBNA2 polypeptide T1 EBNA2_(381-445) (domain or fragment) (P12978 381-445): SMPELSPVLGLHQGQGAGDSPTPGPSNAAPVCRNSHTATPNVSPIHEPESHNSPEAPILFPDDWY

A word on the Kd: it is the constant that tells how readily two partners part at equilibrium. A high value points to a looser complex. For the substance “type 1 EBNA2 polypeptide T1 EBNA2_(381-445) (domain or fragment)”, the Kd worked out at 0.95 µM and the stoichiometry N (molar ratio EBNA2 : BS69CC-MYND monomer) stood at 0.42.
type 1 EBNA2 motif 2 peptide (435-445) came in with a dissociation constant Kd of 47.7 µM.
